Measurements taken from the supplement of paper PMC10567573.

B1: CAMK2B (parent)
chain: YQQIKAGAYDFPSPEWDTVTPEAK

Variants of: B1
Experiment: protein stability index of a GFP-peptide fusion (GPS, HEK-293T) (PSI 1-6); higher = more stable
Settings: c terminus: a fixed tail appended
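Also: lentivirally expressed fusions sorted by FACS into six bins by GFP to DsRed ratio, PSI derived from sequencing read proportions per bin multiplied by bin number.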

Point of comparison: YQQIKAGAYDFPSPEWDTVTPPAK, protein stability index 2.93. Against it:
- YQQIKAGAYDFPSPEWDTVSPEAK — higher, 3.74
- YQQIKAGAYDFPSPEWDTVVPEAK — higher, 3.66
- YQQIKAGAYDFPSPEWDTVYPEAK — higher, 3.06
- YQQIKAGAYDFPSPEWDTVWPEAK — lower, 2.46
- YQQIKAGAYDFPSPEWDTVTQEAK — higher, 3.91
- YQQIKAGAYDFPSPEWDTVTYEAK — higher, 3.08
- YQQIKAGAYDFPSPEWDTVTIEAK — higher, 3
- YQQIKAGAYDFPSPEWDTVTVEAK — higher, 3.42
- YQQIKAGAYDFPSPEWDTVTEEAK — higher, 4.3
- YQQIKAGAYDFPSPEWDTVTFEAK — lower, 2.78
- YQQIKAGAYDFPSPEWDTVTAEAK — higher, 3.44
- YQQIKAGAYDFPSPEWDTVTTEAK — higher, 3.6
- YQQIKAGAYDFPSPEWDTVTDEAK — higher, 4.05
- YQQIKAGAYDFPSPEWDTVTWEAK — lower, 2.53
- YQQIKAGAYDFPSPEWDTVTHEAK — higher, 3.42
- YQQIKAGAYDFPSPEWDTVTREAK — higher, 3.2
- YQQIKAGAYDFPSPEWDTVTSEAK — higher, 3.62
- YQQIKAGAYDFPSPEWDTVTNEAK — higher, 3.78
- YQQIKAGAYDFPSPEWDTVTMEAK — higher, 3.31
- YQQIKAGAYDFPSPEWDTVTCEAK — higher, 3.29
- YQQIKAGAYDFPSPEWDTVTLEAK — higher, 3.28
- YQQIKAGAYDFPSPEWDTVTGEAK — higher, 3.65
- YQQIKAGAYDFPSPEWDTVTKEAK — higher, 3.76
- YQQIKAGAYDFPSPEWDTVTPFAK — lower, 2.3
- YQQIKAGAYDFPSPEWDTVTPIAK — higher, 3.05
- YQQIKAGAYDFPSPEWDTVTPNAK — higher, 3.41
- YQQIKAGAYDFPSPEWDTVTPDAK — higher, 3.89
- YQQIKAGAYDFPSPEWDTVTPCAK — lower, 2.82
- YQQIKAGAYDFPSPEWDTVTPSAK — higher, 2.97
- YQQIKAGAYDFPSPEWDTVTPGAK — higher, 3.27
- YQQIKAGAYDFPSPEWDTVTPKAK — the same, 2.93
- YQQIKAGAYDFPSPEWDTVTPHAK — higher, 2.98
- YQQIKAGAYDFPSPEWDTVTPYAK — lower, 2.46
- YQQIKAGAYDFPSPEWDTVTPWAK — lower, 2.08
- YQQIKAGAYDFPSPEWDTVTPQAK — lower, 2.67
- YQQIKAGAYDFPSPEWDTVTPRAK — lower, 2.91
- YQQIKAGAYDFPSPEWDTVTPAAK — lower, 2.9
- YQQIKAGAYDFPSPEWDTVTPLAK — higher, 2.98
- YQQIKAGAYDFPSPEWDTVTPMAK — lower, 2.63
- YQQIKAGAYDFPSPEWDTVTPVAK — lower, 2.82
- YQQIKAGAYDFPSPEWDTVTPTAK — higher, 3.05
- YQQIKAGAYDFPSPEWDTVTPEAG — higher, 3.93
- YQQIKAGAYDFPSPEWDTVTPEAN — higher, 4.11
- YQQIKAGAYDFPSPEWDTVTPEAR — higher, 3.43
- YQQIKAGAYDFPSPEWDTVTPEAH — higher, 3.6
- YQQIKAGAYDFPSPEWDTVTPEAI — higher, 3.59
- YQQIKAGAYDFPSPEWDTVTPEAV — higher, 3.55
- YQQIKAGAYDFPSPEWDTVTPEAQ — higher, 3.81
- YQQIKAGAYDFPSPEWDTVTPEAF — lower, 2.71
- YQQIKAGAYDFPSPEWDTVTPEAE — higher, 4.21
- YQQIKAGAYDFPSPEWDTVTPEAC — higher, 3.38
- YQQIKAGAYDFPSPEWDTVTPEAL — higher, 3.1
- YQQIKAGAYDFPSPEWDTVTPEAA — higher, 3.78
- YQQIKAGAYDFPSPEWDTVTPEAT — higher, 3.47
- YQQIKAGAYDFPSPEWDTVTPEAY — higher, 3.04
- YQQIKAGAYDFPSPEWDTVTPEAW — lower, 2.63
- YQQIKAGAYDFPSPEWDTVTPEAS — higher, 3.93
- YQQIKAGAYDFPSPEWDTVTPEAP — higher, 3.37
- YQQIKAGAYDFPSPEWDTVTPEAD — higher, 4.11
- YQQIKAGAYDFPSPEWDTVTPEAM — higher, 3.27
- YQQIKAGAYDFPSPEWDTVTPENK — higher, 3.97
- YQQIKAGAYDFPSPEWDTVTPEGK — higher, 3.94
- YQQIKAGAYDFPSPEWDTVTPEEK — higher, 4.05
- YQQIKAGAYDFPSPEWDTVTPETK — higher, 3.74
- YQQIKAGAYDFPSPEWDTVTPEDK — higher, 4.36
- YQQIKAGAYDFPSPEWDTVTPEPK — higher, 3.48
- YQQIKAGAYDFPSPEWDTVTPEHK — higher, 3.92
- YQQIKAGAYDFPSPEWDTVTPEKK — higher, 3.82
- YQQIKAGAYDFPSPEWDTVTPEVK — higher, 3.27
- YQQIKAGAYDFPSPEWDTVTPEWK — higher, 3.25
- YQQIKAGAYDFPSPEWDTVTPEQK — higher, 4.06
- YQQIKAGAYDFPSPEWDTVTPELK — lower, 2.81
- YQQIKAGAYDFPSPEWDTVTPERK — higher, 3.69
- YQQIKAGAYDFPSPEWDTVTPECK — higher, 2.98
- YQQIKAGAYDFPSPEWDTVTPEIK — higher, 3.28
- YQQIKAGAYDFPSPEWDTVTPEFK — higher, 3.28
- YQQIKAGAYDFPSPEWDTVTPEMK — higher, 3.28
- YQQIKAGAYDFPSPEWDTVTPESK — higher, 3.86
- YQQIKAGAYDFPSPEWDTVTPEYK — higher, 3.43
